Test results taken from US6352723B1, “Brain-derived alkali-soluble immunoregulatory composition” (priority 1999, dated 2002).
Values joined by “and” are separate entries in the source; they are usually repeats but may differ in a detail not shown here. Equal entries are not always repeated.

System: lymphocytes
Experiment: Proliferation assay for stimulated lymphocytes (tritiated thymidine incorporation; % suppression, SI)
Type: cell-based, mice
Details: for SI (stimulation index): stimulant alone: OVA 500 μg/ml, PPD 25 μg/ml, ConA 2.5 μg/ml, LPS 10 μg/ml, ionomycin 100 ng/ml with 1 ng/ml PMA

## Concanavalin A [ConA, reference compound]
  SI (stimulation index): 31.2 ± 32.7

## ionomycin at 100 ng/ml with 1 ng/ml phorbol 12-myristate 13 acetate (PMA) [Ionomycin/PMA, reference compound]
  SI (stimulation index): 23.6 ± 11.2

B1: chicken ovalbumin (protein, UniProt P01012 2-386, looked up)
Ovalbumin: GSIGAASMEFCFDVFKELKVHHANENIFYCPIAIMSALAMVYLGAKDSTRTQINKVVRFDKLPGFGDSIEAQCGTSVNVHSSLRDILNQITKPNDVYSFSLASRLYAEERYPILPEYLQCVKELYRGGLEPINFQTAADQARELINSWVESQTNGIIRNVLQPSSVDSQTAMVLVNAIVFKGLWEKAFKDEDTQAMPFRVTEQESKPVQMMYQIGLFRVASMASEKMKILELPFASGTMSMLVLLPDEVSGLEQLESIINFEKLTEWTSSNVMEERKIKVYLPRMKMEEKYNLTSVLMAMGITDVFSSSANLSGISSAESLKISQAVHAAHAEINEAGREVVGSAEAGVDAASVSEEFRADHPFLFCIKHIATNAVLFFGRCVSP
notes: Stimulating antigen
Homogenate removed by centrifugation and 0.2μ filter, n=4
  SI for chicken ovalbumin incubated with brain homogenate: 4.8±1.8
Incubated without brain homogenate, n=4
  SI for chicken ovalbumin incubated alone: 4.1±0.9
  SI (stimulation index): 8.8 ± 5.8 and 7.9 ± 4.2
